Measured values: US20220242939A1 (BIOARCTIC, published 2022)
Non-standard residues stand in square brackets, D forms with d. No end group written: not given here. Ahx = NCCCCCC(=O)O

T1: G200 N-terminal neo-epitope peptide GQPLQE-Acp-C (SEQ ID NO:50) conjugated to BSA (human, not fully specified (residue 8); printed as GQPLQE-Acp-C; also: C-terminal Cys conjugated to BSA carrier)
T1 construct: also called G200-BSA peptide; G200-peptide
T1 peptide: GQPLQE[Ahx]C

T2: L198 N-terminal neo-epitope peptide LAGQPL-Acp-C (SEQ ID NO:52) conjugated to BSA (human, not fully specified (residue 8); printed as LAGQPL-Acp-C; also: C-terminal Cys conjugated to BSA carrier)
T2 construct: BSA carrier; also called L198-BSA peptide
T2 peptide: LAGQPL[Ahx]C


What was measured:
[1] = target: T3, recombinant C-terminal ApoE fragment G200-HIS (ApoE-G200-H299-10xHIS) (human, UniProt P02649 218-317); experiment: direct ELISA, target coated at 1 ug/ml, supernatant in 3-fold dilutions from 1000 ng/ml, OD 450 nm
T3 construct: also called G200-HIS fragment
Method: (§1) Selectivity evaluation by direct ELISA: The direct ELISA described below was used to evaluate the binding selectivity of generated monoclonal anti-ApoE antibodies with affinity for the N-terminal neo-epitope of C-terminal ApoE fragments starting at amino acid G200.
(§2) The screening was performed according to standard ELISA protocols. Briefly, 1 μg/ml solutions of N-terminal neo-epitope peptide (SEQ ID NO:50) conjugated to BSA, the recombinant C-terminal ApoE fragment G200-HIS (SEQ ID NO:48) and recombinant full-length ApoE4 (SEQ ID NO:45; Abcam; cat. no. ab50243) were prepared by dilution in PBS. 50 μl/well were added to an ELISA half-area 96 well microtiter plate. Then, the plate was sealed with adhesive sealer and incubated over night at 4° C. The plates were blocked with 150 μl/well of protein-free blocking solution (Pierce) for 1 h at room temperature with shake (600-900 rpm). The plates were washed four times with washing buffer containing 0.28 mM NaH₂PO₄, 2.5 mM Na₂HPO₄, 150 mM NaCl, 0.1% TWEEN®-20 and 0.0075% Kathon CG. Antibodies of interest were serially diluted 3-fold with a starting dilution at 1 μg/ml (mixed 1:1 with dilution buffer: PBS with 0.1% BSA and 0.05% TWEEN®-20) and incubated for 2 h at room temperature. The plates were washed four times as before. […] After another wash (as above), 50 μl/well of K-Blue® aqueous substrate (Neogen) were added, and the reaction was stopped after 5-15 min with 50 μl/well of 0.5 M […]. The optical density at 450 nm was read using an ELISA reader (Tecan). The optical density was plotted against the antibody concentration to generate concentration-response curves (FIG. 14).

[2] = target: T4, recombinant full-length ApoE4 (aa 1-299; SEQ ID NO:45; Abcam cat. no. ab50243) (human, UniProt P02649 19-317); experiment: as above
T4 construct: Bought protein; also called recombinant ApoE4 full-length protein
Method: as §1, §2

[3] = target: T1, G200 N-terminal neo-epitope peptide …; experiment: as above
Method: as §1, §2

[4] = target: T5, full-length ApoE in human brain extract from Alzheimer's disease patients (human, UniProt P02649 19-317); experiment: Western blot of AD brain RIPA 2% SDS extract; hybridoma supernatant as primary antibody
T5 construct: mature; Endogenous protein on Western blot or in solution (IP); also called ApoE full-length protein
Description: Selectivity evaluation and human target binding in Alzheimer's disease brain extracts by Western blot analysis: The Western blot analysis described below was used to evaluate selective binding of monoclonal antibodies with affinity for the N-terminal neo-epitope of ApoE fragments […], starting at G200, without binding to ApoE full-length protein, in human brain extracts from an Alzheimer's disease patient. Fresh frozen brain tissue from the Alzheimer's disease patient was homogenized in RIPA 2% SDS extraction buffer, followed by centrifugation at 16000×g for 1 h. The subsequent supernatant was subjected to standard protein concentration determination.
RIPA 2% SDS brain extract containing 80 μg total protein was mixed with 2×Laemmli sample buffer, boiled for 5 min at 95° C. and loaded onto SDS-PAGE gels (Bolt™ 12% Bis-Tris Plus 10 well, Thermo Fisher, cat. no. NW00120BOX). Gels were run for 30-40 min at 180 V, after which proteins were transferred from the gels to nitrocellulose membranes using the Trans-Blot® Turbo™ system (Bio-Rad). Membranes were blocked in Odyssey® blocking buffer for 1 h and incubated over night at room temperature with hybridoma supernatant diluted 1:1 in Odyssey® blocking buffer with 0.1% TWEEN®-20. Membranes were washed and incubated for 1 h at room temperature with the detection antibody anti-mouse-800CW (LI-COR, cat. no. 925-32210) diluted 1:25000 in Odyssey® blocking buffer with 0.1% TWEEN®-20. Membranes were washed and images acquired using Odyssey® FC (LI-COR).

[5] = target: T6, recombinant C-terminal ApoE fragment L198-HIS (ApoE-L198-H299-10xHIS) (human, UniProt P02649 216-317); experiment: direct ELISA, L198-HIS coated at 0.1 µM
T6 construct: also called L198-HIS fragment
Method: (§3) Selectivity evaluation of purified monoclonal antibodies by direct ELISA: The direct ELISA described below was used to evaluate the binding selectivity of the purified monoclonal antibodies produced in Example 14.
(§4) The screening was performed according to standard ELISA protocols. Briefly, 1 μg/ml solutions of BSA-conjugated neo-epitope peptides and negative control peptide, and 0.1 μM recombinant C-terminal ApoE fragment and full-length ApoE (Abcam, cat. no. ab50243) were prepared by dilution in PBS. 50 μl/well were added to an ELISA half-area 96 well microtiter plate, and the plate was sealed with adhesive sealer and incubated over night at 4° C. After discarding the solution, the plates were blocked with 150 μl/well of protein-free blocking solution (Pierce) for 1 h at room temperature with shake (600-900 rpm). The plates were washed four times with washing buffer containing 0.28 mM NaH₂PO₄, 2.5 mM Na₂HPO₄, 150 mM NaCl, 0.1% TWEEN®-20 and 0.0075% Kathon CG. Purified monoclonal antibodies of interest were 3-fold serially diluted with a starting dilution at 3 μg/ml (mixed 1:2 with dilution buffer (PBS with 0.1% BSA and 0.05% TWEEN®-20)). An anti-ApoE C-terminal antibody was used as a reference antibody (ApoE E-8 mouse monoclonal, Santa Cruz Biotechnology, cat. no. sc-393302). 50 μl/well were added into the ELISA plates and incubated for 2 h at room temperature with shake (600-900 rpm). The plates were washed four times as described previously. […] After another wash (as described previously), 50 μl/well of K-Blue® aqueous substrate (Neogen) were added, and the reaction was stopped after 5-15 min with 50 μl/well of 0.5 M […]. The optical density at 450 nm was read using an ELISA reader (Tecan).

[6] = target: T2, L198 N-terminal neo-epitope peptide …; experiment: direct ELISA, L198-BSA peptide coated at 1 µg/ml
Method: as §3, §4

T3 sequence (P02649 other isoform, or with tags, fused parts or gaps limits assumed): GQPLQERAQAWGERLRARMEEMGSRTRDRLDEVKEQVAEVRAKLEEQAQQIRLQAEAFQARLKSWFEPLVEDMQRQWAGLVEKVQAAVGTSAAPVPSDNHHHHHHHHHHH
T5 sequence (P02649 19-317): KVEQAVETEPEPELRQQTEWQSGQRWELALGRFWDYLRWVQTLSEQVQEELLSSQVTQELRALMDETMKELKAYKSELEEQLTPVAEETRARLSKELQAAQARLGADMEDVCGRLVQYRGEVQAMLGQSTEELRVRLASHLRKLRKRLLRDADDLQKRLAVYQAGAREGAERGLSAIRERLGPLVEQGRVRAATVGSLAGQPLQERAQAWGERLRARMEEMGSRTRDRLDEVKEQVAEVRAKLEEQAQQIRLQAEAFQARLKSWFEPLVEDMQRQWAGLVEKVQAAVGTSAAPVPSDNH
T4 sequence (P02649 19-317 C130R limits assumed): as the sequence (P02649 19-317) above, with C112R counted along it
T6 sequence (P02649 other isoform, or with tags, fused parts or gaps limits assumed): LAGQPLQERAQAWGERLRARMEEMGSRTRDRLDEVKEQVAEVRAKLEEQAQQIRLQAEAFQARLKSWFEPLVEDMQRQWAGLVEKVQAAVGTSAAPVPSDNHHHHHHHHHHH

Binder | EC50 (read off the curve) [1] [ng/mL] | binding result [2] | EC50 (read off the curve) [3] [ng/mL] | binding result [4] | EC50 [5] [ng/mL] | EC50 [6] [ng/mL]
4E6, hybridoma monoclonal antibody (unpurified supernatant) (antibody, V domains shown) VH: EVQLVESGGDLVKPGGSLKLSCAASGFTFSSYAMSWVRQSPEKRLEWVAEISGSGSRDHYTDSVTGRFTVSRDNAKNTLYLEMSSLRSEDTAIYYCARQLTGTDYYGTDYWGQGTSVTVSS VL: DVLMTQIPLSLPVSLGDQASISCRSSQSIVYSNGNTYLEWYLQRPGQSPKLLIYKVSNRFSGVPDRFSGSGSGTDFTLKISRVEAEDLGVYYCFQGSHLPYTFGGGTKLEIK | ~10 | no binding (tested: 1000 ng/ml) | ~10 | no binding (tested: supernatant diluted 1:1 (text)) | – | –
7B10, hybridoma monoclonal antibody (unpurified supernatant) (antibody, mouse IgG1, V domains shown, also called 7610) VH: AVQLVESGGGLVKPGRSLKLSCAASGFTFSSYAMSWVRQFPDKRLDWVAEISSGGGSTNYLDTVTGRFTISRDNAKNTLYLEMNSLRSEDTAMYYCARQLVGTDYYGTDYWGQGTSVTVSS VL: DVLMTQTPLSLPVSLGDQASISCRSSQNIVYSNGNTYLEWYLQKPGQSPKLLIYKVSNRFSGVPDRFSGSGSGTDFTLKISRVEAEDLGVYYCFQGSHVPYTFGGGTKLEIK | ~8 | no binding (tested: 1000 ng/ml) | ~20 | no binding (tested: supernatant diluted 1:1 (text)) | – | –
17G4, hybridoma monoclonal antibody (unpurified supernatant) (antibody, mouse IgG1, V domains shown) VH: EVQLVESGGGLVKPGGSLKLSCSASGFTFSRYAMSWVRQSPEKRLEWVAEINSGGSYSFYSDTVTGRFTISRDNAKNTLFLEMSSLRSEDTAIYYCARQLTGTDYYGTDYWGQGTSVTVSS VL: DVLMTQTPLSLPVSHGDQASISCRSSQSLLYSNGNTYLEWYLQKPGQSPKLLIYKVSNRFSGVPDRFSGSGSGTDFTLKISRVEAEDLGVYYCFQGSHVPYTFGGGTKLEIK | ~8 | no binding (tested: 1000 ng/ml) | – | no binding (tested: supernatant diluted 1:1 (text)) | – | –
23D5, hybridoma monoclonal antibody (unpurified supernatant) (antibody, mouse IgG1, V domains shown) VH: EVQLVESGGGLVKPGGSLKLSCSASGFTFSRYAMSWVRQSPEKRLEWVAEINSGGSYSFYSDTVTGRFTISRDNAKNTLFLEMSSLRSEDTAIYYCARQLSGTDYYGTDYWGQGTSVTVSS VL: DVLMTQTPLSLPVSHGDQASISCRSSQSLLYSNGNTYLEWYLQKPGQSPKLLIYKVSNRFSGVPDRFSGSGSGTDFTLKISRVEAEDLGVYYCFQGSHVPYTFGGGTKLEIK | ~10 | no binding (tested: 1000 ng/ml) | – | no binding (tested: supernatant diluted 1:1 (text)) | – | –
28F2, hybridoma monoclonal antibody (unpurified supernatant) (antibody, mouse IgG1, V domains shown) VH: QIQLVQSGPDLKKPGETVKISCKASGYTFTNYAMHWMKQAPGKALKWMGWINTYTGEPTFADDFKGRFAFSLETSASTAYLQINSLKNEDMATYFCAREGYYDRSHYFDYWGQGTTLTVSS VL: DVLMTQTPLSLPVSLGDQASISCRSSLSLVHGDGNTYLEWYLQKPGQSPKLLIYKVSNRFSGVPDRFSGSGSGTDFTLKISRVEAEDLGVYYCLQGSHIPFTFGSGTKLEIK | ~5 | no binding (tested: 1000 ng/ml) | – | no binding (tested: supernatant diluted 1:1 (text)) | – | –
7C7, hybridoma monoclonal antibody (unpurified supernatant) (antibody, mouse IgG2b, V domains shown) VH: EVQLVESGGGLVKPGGSLRLSCAASGFTFSSFAMSWVRQSPERRLEWVAEISRGGGYAFYSDTVTGRFTISRDNARNTLFLEMGSLRSEDTAMYYCSRQLTGTDYYAMDYWGQGTSVTVSS VL: DVLLTQTPLSLFVSLGDQASISCRSSQSIVYTNGNTYLEWYLQKPGQSPKLLIYKVSNRFSGVPDRFSGSGSGTDFTLKISRVEAEDLGVYYCFQGSQVPYTFGGGTKLELK | – | no binding (tested: 1000 ng/ml) | – | no binding (tested: supernatant diluted 1:1 (text)) | – | –
12B1, monoclonal anti-L198 antibody (antibody, IgG2c, V domains shown) VH: EVKLEESGGGLVQPGGSMKLSCVASGITFSKYWMNWVRQCPEKGLEWVAQIRLRSDNYATHYAESVKGRFTISRDDSKSSVYLQMNTLRAEDTGIYYCTHHYYGSSGYVDVWGTGTTVTVSS VL: DIVMTQSQKFMSTSVGDRVSVTCKASQNVGTNVAWYQQKPGQCPKGMILSASQRYSGVPDRFTGSGFGTEFTLTISNVQSEDLAEYFCQQYNSYPYTFGGGTKLERK | – | – | – | – | 8.7 | 15.2
15H11, monoclonal anti-L198 antibody (antibody, IgG1, V domains shown) VH: EVKLEESGGGLVQPGGAMKLSCVASGITFSNYWMNWVRQCPEKGLEWVAQIRLKSDNYATHYAESVKGRFTISRDDSKSSVYLQMNTLRAEDTGIYYCTHHYYGSSGYVDVWGTGTTVTVSS VL: DIVMTQSQKFMSTSVGDRVSVTCKASQNVGNNVAWYQKKPGQCPKGMILSASQRYSGVPDRFTGSGFGTEFTLIISNVQSEDLAEYFCHQYNSYPYTFGGGTKLERK | – | – | – | – | 3.6 | 3.2
